# According to US20140086935A1 (Bayer, published 2014):
# Like-named read-outs stand apart in the source and are kept apart here.
# What was measured:
# human TIMP-1 [1] = biological target: T1, human TIMP-1 (human, UniProt P01033 24-207); assay: cell-based or functional assay
# human TIMP-1 [2] = biological target: T1, human TIMP-1; assay: SPR (BIAcore), TIMP-1 coupled to chip, monovalent Fab
# Procedure: (§1) For affinity determination, monomeric fractions of affinity and SEC purified Fab fragments or purified IgG1 molecules were used. All experiments were conducted in HBS buffer at a flow rate of 20 μl/min at 25° C. on a BIAcore™ instrument. Antigens in 100 mM sodium acetate pH 5.0 were coupled to a CM 5 sensor chip using standard EDC-NHS coupling chemistry. […] All sensograms were fitted globally using BIA evaluation software. For monovalent Fab fragments a monovalent fit (Langmuir binding) and for IgGs a bivalent fit was applied.
# rat TIMP-1 [3] = biological target: T2, rat TIMP-1 (rat, UniProt P30120 24-217); assay: as above
# T2 sequence (P30120 24-217 limits assumed): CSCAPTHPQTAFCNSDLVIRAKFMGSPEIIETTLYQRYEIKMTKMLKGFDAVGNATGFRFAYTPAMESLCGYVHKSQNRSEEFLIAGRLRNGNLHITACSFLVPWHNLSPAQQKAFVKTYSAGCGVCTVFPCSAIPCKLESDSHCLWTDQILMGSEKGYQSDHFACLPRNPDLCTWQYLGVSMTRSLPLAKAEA
# Procedure: as §1
# rat TIMP-1 [4] = biological target: T2, rat TIMP-1; assay: cell-based or functional assay
# rat TIMP-1 [5] = biological target: T2, rat TIMP-1; assay: SPR (BIAcore), TIMP-1 coupled to chip, monovalent Fab; remark: listed apart in the source
# Procedure: as §1
# rat TIMP-1 [6] = biological target: T2, rat TIMP-1; assay: cell-based or functional assay; remark: listed apart in the source
IC50 in human protease assay (human TIMP-1 [1]) [nM],Kd (human TIMP-1 [2]) [nM],Kd (rat TIMP-1 [3]) [nM],IC50 in rat protease assay (rat TIMP-1 [4]) [nM],Binder,other results
> 100,~49,,,"MS-BW-40 (Fab, V domains shown, Fab: heavy chain of MS-BW-3 with light chain of MS-BW-1; not tied by name) VH: not shown VL: DIALTQPASVSGSPGQSITISCTGTSSDVGGYNYVSWYQQHPGKAPKLMIYDVSNRPSGVSNRFSGSKSGNTASLTISGLQAEDEADYYCQSYDYQQFTVFGGGTKLTVLG",
,,~51,> 100,"MS-BW-61 (Fab, V domains shown, Fab, FLAG + Strep-tag II; not tied by name) VH: QVQLVQSGAEVKKPGESLKISCKGSGYSFTSYWIGWVRQMPGKGLEWMGIIYPGDSDTRYSPSFQGQVTISADKSISTAYLQWSSLKASDTAMYYCARIIGDYVIFFDVWGQGTLVTVSS VL: DIALTQPASVSGSPGQSITISCTGTSSDVGGYNYVSWYQQHPGKAPKLMIYDVSNRPSGVSNRFSGSKSGNTASLTISGLQAEDEADYYCQSFDMIHPYVFGGGTKLTVLG",
,,~30,> 100,"MS-BW-60 (Fab, V domains shown, Fab, FLAG + Strep-tag II; not tied by name) VH: QVQLVQSGAEVKKPGESLKISCKGSGYSFTSYWIGWVRQMPGKGLEWMGIIYPGDSDTRYSPSFQGQVTISADKSISTAYLQWSSLKASDTAMYYCARFVSYNGSVPYFDYWGQGTLVTVSS VL: DIALTQPASVSGSPGQSITISCTGTSSDVGGYNYVSWYQQHPGKAPKLMIYDVSNRPSGVSNRFSGSKSGNTASLTISGLQAEDEADYYCQSMDFRLMHVFGGGTKLTVLG",
,,~39,~60,"MS-BW-57 (Fab, V domains shown, Fab, FLAG + Strep-tag II; not tied by name) VH: QVQLVQSGAEVKKPGESLKISCKGSGYSFTSYWIGWVRQMPGKGLEWMGIIYPGDSDTRYSPSFQGQVTISADKSISTAYLQWSSLKASDTAMYYCARLYPEDLIYFDYWGQGTLVTVSS VL: DIALTQPASVSGSPGQSITISCTGTSSDVGGYNYVSWYQQHPGKAPKLMIYDVSNRPSGVSNRFSGSKSGNTASLTISGLQAEDEADYYCQSWDVQTDKVFGGGTKLTVLG",
,,~15,30,"MS-BW-59 (Fab, V domains shown, Fab, FLAG + Strep-tag II; not tied by name) VH: QVQLVQSGAEVKKPGESLKISCKGSGYSFTSYWIGWVRQMPGKGLEWMGIIYPGDSDTRYSPSFQGQVTISADKSISTAYLQWSSLKASDTAMYYCARLRVHDYAMYFDLWGQGTLVTVSS VL: DIALTQPASVSGSPGQSITISCTGTSSDVGGYNYVSWYQQHPGKAPKLMIYDVSNRPSGVSNRFSGSKSGNTASLTISGLQAEDEADYYCQSYDIMPERVFGGGTKLTVLG",
> 100,~152,,,"MS-BW-47 (Fab, V domains shown, Fab: heavy chain of MS-BW-28 with light chain of MS-BW-1; not tied by name) VH: not shown VL: DIALTQPASVSGSPGQSITISCTGTSSDVGGYNYVSWYQQHPGKAPKLMIYDVSNRPSGVSNRFSGSKSGNTASLTISGLQAEDEADYYCQSYDYQQFTVFGGGTKLTVLG",
7,~7,,,"MS-BW-51 (Fab, V domains shown, Fab: heavy chain of MS-BW-28 with light chain of MS-BW-25; not tied by name) VH: not shown VL: DIALTQPASVSGSPGQSITISCTGTSSDVGGYNYVSWYQQHPGKAPKLMIYDVSNRPSGVSNRFSGSKSGNTASLTISGLQAEDEADYYCQSYDFINVIVFGGGTKLTVLG",
9,8,,,"MS-BW-45 (Fab, V domains shown, Fab: heavy chain of MS-BW-3 with light chain of MS-BW-27; not tied by name) VH: not shown VL: DIALTQPASVSGSPGQSITISCTGTSSDVGGYNYVSWYQQHPGKAPKLMIYDVSNRPSGVSNRFSGSKSGNTASLTISGLQAEDEADYYCQSYDFYKFNVFGGGTKLTVLG",
4,6,,,"MS-BW-46 (Fab, V domains shown, Fab: heavy chain of MS-BW-3 with light chain of MS-BW-28; not tied by name) VH: not shown VL: DIALTQPASVSGSPGQSITISCTGTSSDVGGYNYVSWYQQHPGKAPKLMIYDVSNRPSGVSNRFSGSKSGNTASLTISGLQAEDEADYYCQSYDFRRFSVFGGGTKLTVLG",
> 100,~21,,,"MS-BW-49 (Fab, V domains shown, Fab: heavy chain of MS-BW-28 with light chain of MS-BW-2; not tied by name) VH: not shown VL: DIALTQPASVSGSPGQSITISCTGTSSDVGGYNYVSWYQQHPGKAPKLMIYDVSNRPSGVSNRFSGSKSGNTASLTISGLQAEDEADYYCQSYDFKTYLVFGGGTKLTVLG",
> 100,~65,,,"MS-BW-43 (Fab, V domains shown, Fab: heavy chain of MS-BW-3 with light chain of MS-BW-25; not tied by name) VH: not shown VL: DIALTQPASVSGSPGQSITISCTGTSSDVGGYNYVSWYQQHPGKAPKLMIYDVSNRPSGVSNRFSGSKSGNTASLTISGLQAEDEADYYCQSYDFINVIVFGGGTKLTVLG",
29,~6,,,"MS-BW-41 (Fab, V domains shown, Fab: heavy chain of MS-BW-3 with light chain of MS-BW-2; not tied by name) VH: not shown VL: DIALTQPASVSGSPGQSITISCTGTSSDVGGYNYVSWYQQHPGKAPKLMIYDVSNRPSGVSNRFSGSKSGNTASLTISGLQAEDEADYYCQSYDFKTYLVFGGGTKLTVLG",
9,~11,,,"MS-BW-52 (Fab, V domains shown, Fab: heavy chain of MS-BW-28 with light chain of MS-BW-26; not tied by name) VH: not shown VL: DIALTQPASVSGSPGQSITISCTGTSSDVGGYNYVSWYQQHPGKAPKLMIYDVSNRPSGVSNRFSGSKSGNTASLTISGLQAEDEADYYCQSYDFVRFMVFGGGTKLTVLG",
,,~214,> 100,"MS-BW-29 (Fab, V domains shown, Fab, FLAG + Strep-tag II; not tied by name) VH: QVQLVQSGAEVKKPGESLKISCKGSGYSFTSYWIGWVRQMPGKGLEWMGIIYPGDSDTRYSPSFQGQVTISADKSISTAYLQWSSLKASDTAMYYCARHDFDGSIFMDFWGQGTLVTVSS VL: DIALTQPASVSGSPGQSITISCTGTSSDVGGYNYVSWYQQHPGKAPKLMIYDVSNRPSGVSNRFSGSKSGNTASLTISGLQAEDEADYYCQSYDVTPRVFGGGTKLTVLG",
,,10,> 100,"MS-BW-37 (Fab, V domains shown, Fab, FLAG + Strep-tag II; not tied by name) VH: QVQLVQSGAEVKKPGESLKISCKGSGYSFTSYWIGWVRQMPGKGLEWMGIIYPGDSDTRYSPSFQGQVTISADKSISTAYLQWSSLKASDTAMYYCARLFAGLELYFDYWGQGTLVTVSS VL: DIALTQPASVSGSPGQSITISCTGTSSDVGGYNYVSWYQQHPGKAPKLMIYDVSNRPSGVSNRFSGSKSGNTASLTISGLQAEDEADYYCQSYDLRNRVFGGGTKLTVLG",
,,,,"MS-BW-17-2 (Fab, V domains shown, Fab from LCDR3 optimization of MS-BW-17) VH: QVQLVQSGAEVKKPGESLKISCKGSGYSFTSYWIGWVRQMPGKGLEWMGIIYPGDSDTRYSPSFQGQVTISADKSISTAYLQWSSLKASDTAMYYCARLTNYFDSIYYDHWGQGTLVTVSS VL: DIALTQPASVSGSPGQSITISCTGTSSDVGGYNYVSWYQQHPGKAPKLMIYDVSNRPSGVSNRFSGSKSGNTASLTISGLQAEDEADYYCQAFAVMPNVEVFGGGTKLTVLG",Kd (rat TIMP-1 [5]): 1.3 nM; IC50 in rat protease assay (rat TIMP-1 [6]): 1.1 nM
,,~92,> 100,"MS-BW-32 (Fab, V domains shown, Fab, FLAG + Strep-tag II; not tied by name) VH: QVQLVQSGAEVKKPGSSVKVSCKASGGTFSSYAISWVRQAPGQGLEWMGGIIPIFGTANYAQKFQGRVTITADESTSTAYMELSSLRSEDTAVYYCARTKYVGSEDVWGQGTLVTVSS VL: DIALTQPASVSGSPGQSITISCTGTSSDVGGYNYVSWYQQHPGKAPKLMIYDVSNRPSGVSNRFSGSKSGNTASLTISGLQAEDEADYYCQSYDFSHYFFVFGGGTKLTVLG",
,,~23,~100,"MS-BW-55 (Fab, V domains shown, Fab, FLAG + Strep-tag II; not tied by name) VH: QVQLVQSGAEVKKPGSSVKVSCKASGGTFSSYAISWVRQAPGQGLEWMGWINPNSGGTNYAQKFQGRVTMTRDTSISTAYMELSSLRSEDTAVYYCARITYIGYDFWGQGTLVTVSS VL: DIALTQPASVSGSPGQSITISCTGTSSDVGGYNYVSWYQQHPGKAPKLMIYDVSNRPSGVSNRFSGSKSGNTASLTISGLQAEDEADYYCQSRDLYYVYYVFGGGTKLTVLG",
,,,,"MS-BW-17-3 (Fab, V domains shown, Fab from LCDR3 optimization of MS-BW-17) VH: QVQLVQSGAEVKKPGESLKISCKGSGYSFTSYWIGWVRQMPGKGLEWMGIIYPGDSDTRYSPSFQGQVTISADKSISTAYLQWSSLKASDTAMYYCARLTNYFDSIYYDHWGQGTLVTVSS VL: DIALTQPASVSGSPGQSITISCTGTSSDVGGYNYVSWYQQHPGKAPKLMIYDVSNRPSGVSNRFSGSKSGNTASLTISGLQAEDEADYYCQSFTVSPGADVFGGGTKLTVLG",Kd (rat TIMP-1 [5]): 1.9 nM; IC50 in rat protease assay (rat TIMP-1 [6]): 3 nM
,,~36,> 100,"MS-BW-30 (Fab, V domains shown, Fab, FLAG + Strep-tag II; not tied by name) VH: QVQLVQSGAEVKKPGESLKISCKGSGYSFTSYWIGWVRQMPGKGLEWMGIIYPGDSDTRYSPSFQGQVTISADKSISTAYLQWSSLKASDTAMYYCARYAGHQYEFFFDFWGQGTLVTVSS VL: DIELTQPPSVSVAPGQTARISCSGDALGDKYASWYQQKPGQAPVLVIYDDSDRPSGIPERFSGSNSGNTATLTISGTQAEDEADYYCQSRDPVGFPVFGGGTKLTVLG",
,,~42,~75,"MS-BW-36 (Fab, V domains shown, Fab, FLAG + Strep-tag II; not tied by name) VH: QVQLVQSGAEVKKPGESLKISCKGSGYSFTSYWIGWVRQMPGKGLEWMGIIYPGDSDTRYSPSFQGQVTISADKSISTAYLQWSSLKASDTAMYYCARYRYPHMFDFWGQGTLVTVSS VL: DIELTQPPSVSVAPGQTARISCSGDALGDKYASWYQQKPGQAPVLVIYDDSDRPSGIPERFSGSNSGNTATLTISGTQAEDEADYYCQSYDLRYSHVFGGGTKLTVLG",
,,~170,> 100,"MS-BW-56 (Fab, V domains shown, Fab, FLAG + Strep-tag II; not tied by name) VH: QVQLVQSGAEVKKPGSSVKVSCKASGGTFSSYAISWVRQAPGQGLEWMGGIIPIFGTANYAQKFQGRVTITADESTSTAYMELSSLRSEDTAVYYCARQEWYMDYWGQGTLVTVSS VL: DIELTQPPSVSVAPGQTARISCSGDALGDKYASWYQQKPGQAPVLVIYDDSDRPSGIPERFSGSNSGNTATLTISGTQAEDEADYYCQSYDRSMWVFGGGTKLTVLG",
